Columns and labels:
HLA-E [1] = biological target: T1, HLA-E (Homo sapiens, UniProt P13747); experiment: HLA-E stabilization by UL40 peptides on HLA-E-expressing RMA-S cells; type: cell-based; conditions: for Interpretation: HLA-E binding class of UL40 variant; for Mean MFI: HLA-E expression on the cell surface of RMA-S cells incubated with UL40 peptide; for HLA-E Upregulation: HLA-E-expressing RMA-S cells incubated with UL40 peptide
T1 construct: expressed in transfected cells; host or cells: mouse lymphoma cell line RMA-S/HLA-E/LFA-3, a gift from Chiara Romagnani, DRFZ Berlin
Description: Functionally, the expansion of NKG2C^+ NK cells in response to HCMV infections depends on a highly polymorphic HCMV UL40-encoded peptide in the respective infecting HCMV variant, which upregulates the NKG2C ligand HLA-E on the surface of HCMV-infected cells^52. […] HCMV variants were obtained from all 145 HCMV-seropositive MS patients during an episode of HCMV reactivation between EBV seroconversion and MS diagnosis, as well as from all HCMV seropositive EBNA^high (N=80) and EBNA^low (N=85) controls in any of the serum samples collected from the individuals over time. […] Therefore, we incubated HLA-E-expressing RMA-S cells with each of the 18 UL40 peptides and measured HLA-E expression on the cell surface.

EBV B95-8 isolate = experiment: Virus (EBV) dissemination assay in K562-CR2-HLA-E cells; type: cell-based, Epstein-Barr virus; conditions: for viral spread (BZLF1+ K562-CR2-HLA-E cells); effect of peptide on NKG2A+ NK or NKG2A+ CD8+ T cell mediated prevention of the viral spread: 300 μM LMP-1 peptide, 2-14 days of co-culture
Protocol: For the virus dissemination assays, the marmoset B-lymphoblastoid cell line B95-8 was cultured in RPM1 1640 medium supplemented with 20 mM glutamine, 50 µg/ml gentamicin, 0.2 µg/ml amphotericin B and 10% FCS (Thermo-Scientific). Cells were then cultured in the presence of […] (Biomol) for two weeks. EBV was harvested from the supernatant and enriched by ultracentrifugation (30000 U/min, 90 min, 10° C.). The virus stocks were stored at −80° C. in RPMI 1640 medium+10% FCS+10% DMSO (all: Thermo-Scientific). The multiplicity of infection (MOI) of the viral stocks was determined on K562-CR2-HLA-E*0101/0101 and K562-CR2-HLA-E*0103/0103 cells by flow-cytometry.
RMA-S/HLA-E/LFA-3 cells (kindly provided by Chiara Romagnani, DRFZ, Berlin) were maintained in RPMI-1640+20 mM glutamine+10% FCS+20 μM β-mercaptoethanol+100 U/ml penicillin-streptomycin (all Thermo Fisher)+400 μg/ml hygromycin B+1 mg/ml G418 (both InvivoGen). 2×10^6 RMA-S/LFA3/HLA-E cells were incubated for 16 h at 37° C., 5% CO2, with 300 μM of respective peptides (Peptides&Elephants) in 1 ml serum-free OptiMEM (Thermo-Fisher). Cells were afterwards inactivated using 20 μg/mL Mitomycin C (Sigma Aldrich) at 37° C. for 30 minutes. Peptide pulsed RMA-S/LFA3/HLA-E cells were co-cultured with […] CFSE (Thermo-Fisher) stained CD56^+ or CD8^+ MACS-enriched cells for 7 days in RPMI+10% FCS. Proliferating (CFSE^low) NKG2A^+CD56^+ NK cells, NKG2A^+ CD8^+ T cells or […]-specific, HLA-E-restricted NKG2A^+ or NKG2A^− T cells were then sorted by FACS as described below.
Fresh K562-CR2-HLA-E*0101/0101 and K562-CR2-HLA-E*0103/0103 cells were then inactivated using 20 μg/mL Mitomycin C at 37° C. for 30 minutes and then infected with the EBV B95-8 isolate (MOI=1) for 24 h. The infected cells were then co-cultured together with the sorted NKG2A^+ CD56^+ NK cells, NKG2A^+ CD8^+ T cells or […]-specific, HLA-E-restricted NKG2A^+ or NKG2A^− T cells (E:T, 1:2). In some experiments, 300 μM of respective peptides was also added. At indicated time points, the cells were harvested and analyzed by flow-cytometry, as described below.

HLA-E [2] = experiment: HLA-E stabilization assay on peptide-pulsed K562-HLA-E cells; conditions: K562-HLA-E*0103/0103 or K562-HLA-E*0101/0101 cells, 300 μM peptide, 16 h, flow-cytometry
Protocol: HLA-E surface stabilization was induced as previously described^32. In brief, TAP-incompetent K562-HLA-E*0101/0101 and K562-HLA-E*0103/0103 (kindly provided by Thorbald van Hall, Leiden University Medical Center) were cultured in Iscove's Modified Dulbecco's Medium (IMDM)+10% FCS (both: Thermo-Scientific). […] (positive control), BZLF1-derived [sequence] or LMP-1 peptides (Peptides&Elephants) in 1 ml Opti-MEM (Thermo-Fisher) for 16 h at 37° C. Peptide-pulsed cells were either stained for HLA-E surface expression by flow-cytometry analysis or washed with complete medium and used for in vitro stimulations.
The following conjugated mouse anti-human mAB were used for flow-cytometry: BV421-CD56 (NCAM 16.2), BV421-CD8 (RPA-T8), BV510-NKG2A (131411), APC/H7-CD107a (H4A3), APC/CD21 (all: BD), APC-CD3 (UCHT1), APC/Cy7-IFNγ (B27), APC-HLA/E (all: Biolegend), APC-Cy7-Granzyme B (Abcore), BZLF1-Alexa488 (Novusbio). Dead cells were identified using LIVE/DEAD Fixable Green Dead Cell Stain Kit (Thermo-Scientific) or 7-Aminoactinomycin D (7-AAD, Invitrogen). Flow-cytometry analysis was performed on a FACSCanto2 platform and FACSDiva Version 10.7.2 (BD).

NKG2C+ NK cells = experiment: NKG2C+ NK cell response elicited by UL40 peptides; parameters: species or system human; conditions: UL40 peptide variant encoded by infecting HCMV isolate
HLA-E [3] = experiment: LMP-1 dependent HLA-E up-regulation assay in GlialCAM370-389-specific B-cells; type: cell-based, human; conditions: B-cells from 24 healthy blood donors transfected with LMP-1 peptide, 16 h
Protocol: For the HLA-E stabilization experiments, 5×10^6 viable CFSE stained PBMCs were cultured in RPMI-1640+10% FCS in the presence of 10 μg GlialCAM370-389 ([…]), 10 μg of random 20 amino acid peptides (negative control, GenScript) or without peptides (non-peptide control) and 10 ng/mL IL-2 (Peprotech) at 37° C. Every three days, fresh 10 μg GlialCAM370-389 and 10 ng/mL IL-2 were added. After 7 days of co-culture, GlialCAM370-389-specific B-cells were sorted. 1×10^5 GlialCAM370-389-specific B-cells were then individually transfected with the indicated concentrations of the LMP-1 peptides (Peptides&Elephants) using the Pierce Protein Transfection Reagent according to the manufacturer's instructions (Thermo Fisher). After 16 h, the cells were either fixed and analyzed for HLA-E expression by flow cytometry, as described below, or washed once with Opti-MEM I Reduced Serum Medium (Gibco) and subsequently used in NKG2A^+ NK cell inhibition experiments. For the NKG2A^+ NK cell inhibition experiments, sorted NKG2A^+NKG2C^−NKG2D^− NK cells from 24 healthy blood donors were cultured together with peptide-pulsed GlialCAM370-389 B-cells (E:T, 1:1) for 6 h at 37° C. After co-cultivation, the supernatant was removed, cleared by centrifugation (1000×g, 5 min), and analyzed using IFNγ ELISA according to the manufacturer's recommendations (Thermo Fisher).

T1 sequence (P61769 21-119): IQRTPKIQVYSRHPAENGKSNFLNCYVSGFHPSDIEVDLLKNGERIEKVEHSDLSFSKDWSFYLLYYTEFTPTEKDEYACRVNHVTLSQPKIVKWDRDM
T1 sequence (P13747 22-358): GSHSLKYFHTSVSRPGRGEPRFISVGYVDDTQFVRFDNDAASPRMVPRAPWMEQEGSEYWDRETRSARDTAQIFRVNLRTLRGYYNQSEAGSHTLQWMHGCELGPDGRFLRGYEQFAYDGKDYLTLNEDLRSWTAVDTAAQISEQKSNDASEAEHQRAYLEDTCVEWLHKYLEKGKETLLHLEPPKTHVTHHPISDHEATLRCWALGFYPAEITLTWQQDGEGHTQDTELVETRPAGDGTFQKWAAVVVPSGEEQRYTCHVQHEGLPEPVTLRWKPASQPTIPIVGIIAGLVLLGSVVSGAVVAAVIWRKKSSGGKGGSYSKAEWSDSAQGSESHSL

| Sequence | Interpretation (HLA-E [1]) | Mean MFI (HLA-E [1]) | HLA-E Upregulation (HLA-E [1]) [%] | further results |
| --- | --- | --- | --- | --- |
| VMAPWTLVL [HCMV UL40 peptide variant] | Low Binding (↑) | 1503 | 39.6 |  |
| GGDPHLPPL |  |  |  | viral spread (BZLF1+ K562-CR2-HLA-E cells); effect of peptide on NKG2A+ NK or NKG2A+ CD8+ T cell mediated prevention of the viral spread (EBV B95-8 isolate): no inhibitory effect; HLA-E upregulation / stabilization (surface expression of HLA-E) (HLA-E [2]): neither significant HLA-E upregulation |
| VMAPRSLIL [HCMV UL40 peptide variant] | Low Binding (↑) | 2074 | 54.6 |  |
| VMAPRTLFL [HCMV UL40 peptide variant] | High Binding (↑↑) (a high-level of HLA-E stabilization, as defined by an HLA-E upregulation of >99.5%) | 3797 | 100.0 | NKG2C+ NK cell response (NKG2C+ NK cells): more potent NKG2C^+ NK cell response |
| VMAPRTLLL [HCMV UL40 peptide variant] | High Binding (↑↑) (a high-level of HLA-E stabilization, as defined by an HLA-E upregulation of >99.5%) | 3776 | 99.5 | NKG2C+ NK cell response (NKG2C+ NK cells): more potent NKG2C^+ NK cell response |
| VMTPRTLVL [HCMV UL40 peptide variant] | Low Binding (↑) | 2488 | 65.5 |  |
| GSDPHLPTL |  |  |  | viral spread (BZLF1+ K562-CR2-HLA-E cells); effect of peptide on NKG2A+ NK or NKG2A+ CD8+ T cell mediated prevention of the viral spread (EBV B95-8 isolate): no inhibitory effect; HLA-E upregulation / stabilization (surface expression of HLA-E) (HLA-E [2]): neither significant HLA-E upregulation |
| VLAPRTLLL [HCMV UL40 peptide variant] | Low Binding (↑) | 2059 | 54.2 |  |
| VMAPRILVL [HCMV UL40 peptide variant] | Low Binding (↑) | 2299 | 60.5 |  |
| VMAPRILIL [HCMV UL40 peptide variant] | Low Binding (↑) | 2056 | 54.2 |  |
| VMAPRSLLL [HCMV UL40 peptide variant] | Low Binding (↑) | 2351 | 61.9 |  |
| VMTPRTLIL [HCMV UL40 peptide variant] | Low Binding (↑) | 2633 | 69.3 |  |
| VMGPRTLIL [HCMV UL40 peptide variant] | Low Binding (↑) | 1858 | 48.9 |  |
| VVAPRTLVL [HCMV UL40 peptide variant] | Low Binding (↑) | 1840 | 48.5 |  |
| GMAPRTLLL [HCMV UL40 peptide variant] | Low Binding (↑) | 1575 | 41.5 |  |
| VIAPRTLIL [HCMV UL40 peptide variant] | Low Binding (↑) | 1541 | 40.6 |  |
| VMAPWTLIL [HCMV UL40 peptide variant] | Low Binding (↑) | 1210 | 31.9 |  |
| VMTPRTLLL [HCMV UL40 peptide variant] | Low Binding (↑) | 2519 | 66.3 |  |
| GTDPHLPTL [only rarely detected EBV LMP-1 peptide variant] |  |  |  | viral spread (BZLF1+ K562-CR2-HLA-E cells); effect of peptide on NKG2A+ NK or NKG2A+ CD8+ T cell mediated prevention of the viral spread (EBV B95-8 isolate): increased viral spread; inhibition of NKG2A+ CD8+ T cells in EBV-dissemination assay (granzyme B-expressing cells) (EBV B95-8 isolate; peptide-pulsed K562-CR2-HLA-E*0103/0103 and K562-CR2-HLA-E*0101/0101 cells, sorted NKG2A+ CD8+ T cells): caused the inhibition; inhibition of NKG2A+ NK cells in EBV-dissemination assay (granzyme B-expressing cells) (EBV B95-8 isolate; peptide-pulsed K562-CR2-HLA-E*0103/0103 and K562-CR2-HLA-E*0101/0101 cells, sorted NKG2A+ NK cells): caused the inhibition; upregulation of HLA-E on the surface of GlialCAM370-389-specific B-cells (HLA-E [3]): stable upregulation of HLA-E |
| VMAPRTLVL [HCMV UL40 peptide variant] | High Binding (↑↑) (a high-level of HLA-E stabilization, as defined by an HLA-E upregulation of >99.5%) | 3782 |  | NKG2C+ NK cell response (NKG2C+ NK cells): more potent NKG2C^+ NK cell response |

Reference: patent US20260144862A1, “MATERIALS AND METHODS TO TREAT EPSTEIN-BARR VIRUS (EBV) AND EBV-INDUCED DISEASES” (Medizinische Universität Wien, priority 2022, published 2026)
